Experimental data from US20210269533A1 (SAMSUNG ELECTRONICS, published 2021).

How the values were obtained:
[1] = target: c-Met on cancer cells (MKN45 gastric cancer cells; NCI-H441 lung cancer cells) (human, UniProt P08581 25-1390); test: cell-based or functional assay
[2] = target: T1, human c-Met protein (human, UniProt P08581 25-932, limits assumed); test: SPR (Biacore), antibody immobilized on CM5 chip, human c-Met protein injected at 0.39-100 nM
T1 construct: also called c-Met antigen
Procedure: (§1) Affinities of the 4 types of antibodies against c-Met antigen prepared in Example 7 were measured by using a Biacore (GE healthcare). About 80 to 110 RU of each antibody was immobilized on a CM5 chip, 9 different concentrations ranging from 0.39 nM to 100 nM of human c-Met protein, as an antigen, were injected at a rate of 30 ul/min to obtain kₒₙ values and koff values as shown in Table 3. Then, KD values were calculated based thereon.

[3] = target: T1, human c-Met protein; test: SPR (Biacore), ratio of KD values of Table 3
Procedure: as §1

Chain of c-Met on cancer cells (MKN45 gastric cancer cells; NCI-H441 lung cancer cells) (P08581 25-1390): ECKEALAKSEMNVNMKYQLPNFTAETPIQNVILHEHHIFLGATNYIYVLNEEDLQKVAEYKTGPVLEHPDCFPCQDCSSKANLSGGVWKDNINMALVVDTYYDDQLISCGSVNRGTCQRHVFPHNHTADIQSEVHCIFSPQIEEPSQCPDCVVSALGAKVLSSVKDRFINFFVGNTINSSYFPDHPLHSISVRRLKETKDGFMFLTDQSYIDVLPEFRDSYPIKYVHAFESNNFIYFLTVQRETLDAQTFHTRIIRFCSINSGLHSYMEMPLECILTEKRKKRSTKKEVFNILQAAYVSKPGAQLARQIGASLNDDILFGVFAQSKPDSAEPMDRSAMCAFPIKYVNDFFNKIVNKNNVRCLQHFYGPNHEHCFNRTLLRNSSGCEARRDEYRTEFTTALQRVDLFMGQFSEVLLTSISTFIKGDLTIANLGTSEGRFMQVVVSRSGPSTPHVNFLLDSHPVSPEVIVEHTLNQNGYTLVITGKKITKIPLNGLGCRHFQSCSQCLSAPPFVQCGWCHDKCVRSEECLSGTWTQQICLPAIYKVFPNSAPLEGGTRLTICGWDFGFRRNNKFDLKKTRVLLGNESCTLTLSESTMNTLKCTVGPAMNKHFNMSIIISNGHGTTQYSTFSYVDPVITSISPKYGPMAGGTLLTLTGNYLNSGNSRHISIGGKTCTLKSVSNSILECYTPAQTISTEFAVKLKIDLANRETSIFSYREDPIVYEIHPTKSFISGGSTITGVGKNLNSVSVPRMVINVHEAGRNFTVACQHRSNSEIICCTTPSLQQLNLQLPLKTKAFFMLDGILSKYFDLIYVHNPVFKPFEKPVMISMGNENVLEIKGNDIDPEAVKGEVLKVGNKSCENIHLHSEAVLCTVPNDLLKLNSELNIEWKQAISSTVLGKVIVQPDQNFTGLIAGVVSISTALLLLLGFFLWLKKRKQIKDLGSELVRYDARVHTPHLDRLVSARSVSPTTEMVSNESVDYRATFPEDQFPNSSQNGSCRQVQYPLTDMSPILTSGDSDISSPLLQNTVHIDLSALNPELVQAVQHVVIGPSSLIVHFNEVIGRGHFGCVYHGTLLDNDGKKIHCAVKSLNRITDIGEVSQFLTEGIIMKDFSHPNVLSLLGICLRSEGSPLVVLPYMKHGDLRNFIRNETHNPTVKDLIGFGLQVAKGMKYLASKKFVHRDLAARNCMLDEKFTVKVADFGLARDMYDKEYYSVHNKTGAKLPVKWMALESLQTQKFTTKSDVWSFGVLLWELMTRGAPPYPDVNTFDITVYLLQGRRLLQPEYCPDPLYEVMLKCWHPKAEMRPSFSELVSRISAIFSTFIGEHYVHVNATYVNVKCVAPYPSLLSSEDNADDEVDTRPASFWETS
T1 sequence (P08581 25-932 limits assumed): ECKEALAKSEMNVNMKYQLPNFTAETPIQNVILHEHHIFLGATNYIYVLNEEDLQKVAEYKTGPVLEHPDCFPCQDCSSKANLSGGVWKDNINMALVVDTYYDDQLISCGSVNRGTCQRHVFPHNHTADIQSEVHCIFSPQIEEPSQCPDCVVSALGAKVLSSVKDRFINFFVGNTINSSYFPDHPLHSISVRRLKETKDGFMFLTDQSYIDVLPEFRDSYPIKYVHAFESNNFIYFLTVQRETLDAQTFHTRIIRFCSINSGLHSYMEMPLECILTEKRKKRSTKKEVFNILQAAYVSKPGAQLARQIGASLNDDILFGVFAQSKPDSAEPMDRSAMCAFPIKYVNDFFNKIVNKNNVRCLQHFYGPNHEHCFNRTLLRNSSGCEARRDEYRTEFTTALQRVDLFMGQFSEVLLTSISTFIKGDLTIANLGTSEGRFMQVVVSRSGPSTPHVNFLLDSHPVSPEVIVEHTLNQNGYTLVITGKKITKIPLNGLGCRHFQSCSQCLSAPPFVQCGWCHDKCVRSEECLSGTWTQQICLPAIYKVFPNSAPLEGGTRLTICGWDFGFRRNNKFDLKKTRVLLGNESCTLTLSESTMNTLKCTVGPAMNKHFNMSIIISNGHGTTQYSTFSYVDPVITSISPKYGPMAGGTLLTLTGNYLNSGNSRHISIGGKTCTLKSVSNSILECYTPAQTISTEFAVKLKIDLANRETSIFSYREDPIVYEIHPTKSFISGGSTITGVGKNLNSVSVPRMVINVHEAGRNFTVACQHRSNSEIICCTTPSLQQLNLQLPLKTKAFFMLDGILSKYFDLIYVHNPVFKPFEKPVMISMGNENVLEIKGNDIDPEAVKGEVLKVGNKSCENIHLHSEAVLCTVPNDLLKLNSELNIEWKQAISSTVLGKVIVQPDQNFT

| Binder | BrdU assay on NCI-H441 cells (agonism); safety improved by, at 10 ug/ml [1] [%] | degree of degradation of c-Met (total c-Met ELISA, MKN45 cells, 5 ug/ml, 24 h), increase compared to huAbF46 [1] [%] | Kd [2] [nM] | koff [2] [s⁻¹] | kon [2] [M⁻¹ s⁻¹] | fold improvement of affinity (against huAbF46) [3] [times] |
| --- | --- | --- | --- | --- | --- | --- |
| huAbF46-H4-A5 (antibody, IgG1, V domains shown, IgG1 constant region with U6-HC7 hinge, human kappa light chain; also called IgG from clone L3-5) VH: EVQLVESGGGLVQPGGSLRLSCAASGFTFTDYYMSWVRQAPGKGLEWLGFIRNKANGYTTEYSASVKGRFTISRDNSKNTLYLQMNSLRAEDTAVYYCARDNWFAYWGQGTLVTVSS VL: DIQMTQSPSSLSASVGDRVTITCKSSQSLLASGNQNNYLAWHQQKPGKAPKMLIIWASTRVSGVPSRFSGSGSGTDFTLTISSLQPEDFATYYCQQSYSRPFTFGQGTKVEIKR | 21 | ~28 | 0.42 | 0.00024 | 572000 | – |
| huAbF46-H4-A2 (antibody, IgG1, V domains shown, IgG1 constant region with U6-HC7 hinge, human kappa light chain; also called IgG from clone L3-2) VH: EVQLVESGGGLVQPGGSLRLSCAASGFTFTDYYMSWVRQAPGKGLEWLGFIRNKANGYTTEYSASVKGRFTISRDNSKNTLYLQMNSLRAEDTAVYYCARDNWFAYWGQGTLVTVSS VL: DIQMTQSPSSLSASVGDRVTITCKSSQSLLASGNQNNYLAWHQQKPGKAPKMLIIWASTRVSGVPSRFSGSGSGTDFTLTISSLQPEDFATYYCGQSYSRPLTFGQGTKVEIKR | 28 | ~28 | 0.5 | 0.000253 | 502000 | 5 |
| huAbF46-H4-A3 (antibody, IgG1, V domains shown, IgG1 constant region with U6-HC7 hinge, human kappa light chain; also called IgG from clone L3-3) VH: EVQLVESGGGLVQPGGSLRLSCAASGFTFTDYYMSWVRQAPGKGLEWLGFIRNKANGYTTEYSASVKGRFTISRDNSKNTLYLQMNSLRAEDTAVYYCARDNWFAYWGQGTLVTVSS VL: DIQMTQSPSSLSASVGDRVTITCKSSQSLLASGNQNNYLAWHQQKPGKAPKMLIIWASTRVSGVPSRFSGSGSGTDFTLTISSLQPEDFATYYCAQSYSHPFSFGQGTKVEIKR | 13 | ~28 | 0.34 | 0.000143 | 419000 | – |
| huAbF46-H4-A1 (antibody, V domains shown, also called IgG from clone L3-1) VH: EVQLVESGGGLVQPGGSLRLSCAASGFTFTDYYMSWVRQAPGKGLEWLGFIRNKANGYTTEYSASVKGRFTISRDNSKNTLYLQMNSLRAEDTAVYYCARDNWFAYWGQGTLVTVSS VL: DIQMTQSPSSLSASVGDRVTITCKSSQSLLASGNQNNYLAWHQQKPGKAPKMLIIWASTRVSGVPSRFSGSGSGTDFTLTISSLQPEDFATYYCQQSYSRPYTFGQGTKVEIKR | 25 | ~37 | – | – | – | 37 |
